Design: species or system human
Details: in vivo
Description: Key inclusion criteria: Histologically confirmed mNSCLCm Treatment naïve, and PD-L1 expression≥1% are eligible. Key exclusion criteria: Untreated, progressive, or symptomatic brain metastases, Active uncontrolled autoimmune disorders, and Systemic steroid use equivalent to >10 mg prednisone. […] The primary endpoint was overall response rate (ORR). Additional endpoints included correlative analyses, DOR, PFS and OS. The trial used a Simon Mini-Max two-stage design with interim analysis planned after the first stage when 23 patients were enrolled in each arm.

Substance: pembrolizumab [Arm A]
- ALT increased Gr 1: 0
- ALT increased Gr 2: 0
- ALT increased Gr 3: 1 (4%)
- ALT increased Gr 4: 0
- ALT increased Total: 1 (4%)
- AST increased Gr 1: 0
- AST increased Gr 2: 0
- AST increased Gr 3: 1 (4%)
- AST increased Gr 4: 0
- AST increased Total: 1 (4%)
- Alkaline phosphatase increased Gr 1: 0
- Alkaline phosphatase increased Gr 2: 0
- Alkaline phosphatase increased Gr 3: 0
- Alkaline phosphatase increased Gr 4: 0
- Alkaline phosphatase increased Total: 0
- Alopecia Gr 1: 0
- Alopecia Gr 2: 0
- Alopecia Gr 3: 0
- Alopecia Gr 4: 0
- Alopecia Total: 0
- Anemia Gr 1: 0
- Anemia Gr 2: 0
- Anemia Gr 3: 0
- Anemia Gr 4: 0
- Anemia Total: 0
- Anorexia Gr 1: 1 (4%)
- Anorexia Gr 2: 0
- Anorexia Gr 3: 0
- Anorexia Gr 4: 0
- Anorexia Total: 1 (4%)
- Arthralgia Gr 1: 0
- Arthralgia Gr 2: 0
- Arthralgia Gr 3: 0
- Arthralgia Gr 4: 0
- Arthralgia Total: 0
- Chest pain - cardiac Gr 1: 0
- Chest pain - cardiac Gr 2: 0
- Chest pain - cardiac Gr 3: 1 (4%)
- Chest pain - cardiac Gr 4: 0
- Chest pain - cardiac Total: 1 (4%)
- Creatinine increased Gr 1: 0
- Creatinine increased Gr 2: 0
- Creatinine increased Gr 3: 0
- Creatinine increased Gr 4: 0
- Creatinine increased Total: 0
- Diarrhea Gr 2: 1 (4%)
- Diarrhea Gr 3: 0
- Diarrhea Gr 4: 0
- Diarrhea Total: 3 (13%)
- Dysgeusia Gr 1: 0
- Dysgeusia Gr 2: 0
- Dysgeusia Gr 3: 0
- Dysgeusia Gr 4: 0
- Dysgeusia Total: 0
- Fatigue Gr 1: 1 (4%)
- Fatigue Gr 2: 1 (4%)
- Fatigue Gr 3: 0
- Fatigue Gr 4: 0
- Fatigue Total: 2 (8%)
- Heart failure Gr 1: 0
- Heart failure Gr 2: 0
- Heart failure Gr 3: 0
- Heart failure Gr 4: 0
- Heart failure Total: 0
- Hyponatremia Gr 1: 0
- Hyponatremia Gr 2: 0
- Hyponatremia Gr 3: 1 (4%)
- Hyponatremia Gr 4: 0
- Hyponatremia Total: 1 (4%)
- Hypothyroidism Gr 1: 0
- Hypothyroidism Gr 2: 1 (4%)
- Hypothyroidism Gr 3: 0
- Hypothyroidism Gr 4: 0
- Hypothyroidism Total: 1 (4%)
- Nausea Gr 1: 0
- Nausea Gr 2: 0
- Nausea Gr 3: 0
- Nausea Gr 4: 0
- Nausea Total: 0
- Pain Gr 1: 0
- Pain Gr 2: 0
- Pain Gr 3: 0
- Pain Gr 4: 0
- Pain Total: 0
- Pericardial effusion/ tamponade Gr 1: 0
- Pericardial effusion/ tamponade Gr 2: 0
- Pericardial effusion/ tamponade Gr 3: 0
- Pericardial effusion/ tamponade Gr 4: 0
- Pericardial effusion/ tamponade Total: 0
- Platelet count decreased Gr 1: 0
- Platelet count decreased Gr 2: 0
- Platelet count decreased Gr 3: 0
- Platelet count decreased Gr 4: 0
- Platelet count decreased Total: 0
- Pneumonitis Gr 1: 0
- Pneumonitis Gr 2: 0
- Pneumonitis Gr 3: 1 (4%)
- Pneumonitis Gr 4: 0
